Eleven sequences from a protein production outcome set (Wang et al. 2014) can be followed below.

A short description of this data set: label from the status in PepcDB records.
Turning to “MFSAKKRDKCIGEMSEKQLDLLVIGGGITGAGIALDAQVRGIQTGLVEMNDFASGTSSRSTKLVHGGLRYLKQFEIKLVAEVGKERAIVYENAPHVTTPEWMLLPIFKDGTFGKFSTSLGLKVYDYLADVRKDERRYMLNEKQTLEKEPLLRKENLKGGGIYVEYRTDDARLTLEIMKEAVARGAVALNYMKVESFIYDQGKVVGVVAKDRLTDTTHTIYAKKVVNAAGPWVDTLREKDRSKHGKYLKLSKGVHLVVDQSRFPLRQAVYFDTESDGRMIFAIPREGKTYIGTTDTFYDKDIASPRMTVEDRDYILAAANYMFPSLNLTADDVESSWAGLRPLIHEEGKKASEISRKDEIFFSDSGLISIAGGKLTGYRKMAERTVDAVAQGLNVNEPCTTAAIRLSGGLAEGAQGFPRFLDEASRKGAKLGFDADEVRRLAKLYGSNVDHVLNYAYEGKEEAEHYGLPALLLGQLQYGVEQEMVATPLDFFVRRTGALFFNISLVHQWKEAVLRWMAEEFSWTEEEKTRFQNELETELKMAVDPLFQVEPTTVLEHHHHHH”, the protein production entry was “not failed”.

On to “MFSEVEMARDVAICAKHLNGQSPHQPILCRLLQDLIHEKACREHGFYLGITALKSIGNNKNNNIDNENNHQAKILTFPVSFTCRTFLPARGDILQGTVKKVLWNGAFIRSGPLRYAYLSLLKMPHYHYVHSPLSEDEKPHFQKDDLSKIAVGVVVRFQVLAVRFKERPHKRRNDYYVLATLEGNGSFGPISLTGSDEPYM”, for which the protein production entry is given as “failed”.

For the sequence “MFSFFSRWYQERFSDPQAVTLLAILVGLALVLYFAGGLLAPLLVALVLAFLLEWPVAQMLKLGINRTTAASLVLIIFLGIVVLLTFGLIPSVWRQGVSLMTDLPSMIDKGLQTVQGLATQYPQFISVEQLNLMVAELKKLLDTQHVLDIAKQLIGYSASLLVLMVYAILVPLLVFFFLKDKDQLISGSKRFFPTNRQLARKVWFEMHQQIFNYIRGKVIEIVIVGVASYILFAFMGLSYSALLGVLTGLSVLIPYVGATLVTLPIMLVAFFQWGFSSEFGYLMLGYGIIQALDGNVLVPILFSDAVDLHPVIIIAAVLVFGGLWGVLGVFFAIPLASLVKAVINAWPKTEIEPSASAPPQK”, the protein production result is given as “failed”.

Regarding “MFSIVFPVIAPVLIVVAVGFGWARAGRPFDTATVSALGLGLGTPFLLTDVLMSANIAADALAAMGLAALLTLAGMAVGGALTLRLLKLPQAVFLPSMIFGNTGNIALPLCLFAFGDEGLALSIGYFTVVIVIQFSATALISSGERPVPVILRNPVIWTLLVVGTLKAGGIALPGWLADTAHMVGGMCIPVMLLALGVSLARLKVAGLGVALLLGAVKIALGVALGYATVLALDLHGAARGVVLIQSAMPPAVFNYLFAARYNQRPEEVAGLVIVSTGLSVLTMPLLLWGAMADM”, the protein production entry is “failed”.

“MFSKLKKTWYADDFSYFIRNFGVFTLIFSTMTLIILQVMHSSLYTSVDDKLHGLSENPQAVIQLAINRATEEIKDLENARADASKVEIKPNVSSNTEVILFDKDFTQLLSGNRFLGLDKIKLEKKELGHIYQIQVFNSYGQEEIYRVILMETNISSVSTNIKYAAVLINTSQLEQASQKHEQLIVVVMASFWILSLLASLYLARVSVRPLLESMQKQQSFVENASHELRTPLAVLQNRLETLFRKPEATIMDVSESIASSLEEVRNMRFLTTSLLNLARRDDGIKPELAEVPTSFFNTTFTNYEMIASENNRVFRFENRIHRTIVTDQLLLKQLMTILFDNAVKYTEEDGEIDFLISATDRNLYLLVSDNGIGISTEDKKKIFDRFYRVDKARTRQKGGFGLGLSLAKQIVDALKGTVTVKDNKPKGTIFEVKIAIQTPSKKKK”: the protein production result was “failed”.

As to “MFSLREYRNKADRLADFLPWAALVAPGVVLNKDGSFQRSARFRGPDLDSATPAELIATTARLNSALRRLGSGWAIFVEAVRRPAHDYPESDFPDAASALVERERAAQFAEEGAHFESAYYLTLVWMPPAEDAARAESWLYEGKAHQGVQARELLELFSDRTDRLLRLIEGFVPEAAWLDDSETLTYLHSCISTRNHRVRVPETPMHLDALLADEPLTGGLEPRLGRAHLRTLTVVGFPSATFPGILDELNSQGFAYRWSTRAIMLDKTDAAKLLGKIRRQWFAKRKSVAAILKEVMTNEASALLDSDASNKAADADAALQELGSDLQGMAYVTATVTVWDEDAAMAAEKLRLVEKVIQGRDFTVIVEGMNALEAWLGSLPGHVYANVRQPPISTLNLAHMIPLSAVWAGPEWDAHFRAPPLFYARTEGSTPFRFALHVGDVGHTLIVGPTGAGKSVLLALMALQFRRYDRAQIFAFDFGGSIRAAALACGGDWQDLGTSLAGDGAGAVMLQPLARIDEPAERNWAAEWLQAVLTGEGVTVDPATKEHLWSALTSLSTALVAERTLTGLAVLLQSQALKQALAPYCIGGPFGRLLDAEAEQLGAGKFQAFETEGLTGSAAAPAVLSYLFHRIEGRLDGSPTLIIIDEGWLVLDSPAFAAQLREWLKTLRKKNASVVFATQSLADIETSAIAPAIIESCPTRIFLPNERAIEPQILSVYRRFGLNDRQIEIIARAAPKRDYYCQSARGNRLFELGLGEVALAFAAASSKTDQLAISELTETHGTGGFARAWLRHRGLAWAADMLPPDPVPPTRSDQAAGQPKE”, the protein production entry is “failed”.

As to “MFSLRSALILALLIIASLVNTKYSLPLALLVVGLTYLLDEQRLLPYASIVSFLIPMVYPLETSYVPMIYALSSIGILASKYSRLLSSVLIILGVSILPLGDVQKYLILYLTAFLLLGVDIRGTLGGGIIMLILATQGYVPYDLAFYTILFGVLSLTTLYKIKVTRYHAIAILSAIFPLLYSYFPLPSFLVSLGSALVFPPALFSTSILLYVEGFKQGIYGLLLILLSLVYNRYEKYFRTISMVLVSAGLSIFSSVFPPLILILIVIYFLEKGKVLTYSQYFLIPLSLYLLIQGSYQSLVYSSIALIIVSTLRMILRTTDSNRFKKLVKLMNARIVGGIISLLIEIILFFIALQYLVFPLSYVALTLSVIYAVFIFRERNAFVHFSLSAVLALFFNPVFALGGIKLKDSLNVIVVALTIIMGILFSHTLYFSIISVFLSVSYLLQKFDIHDLVPLSVISIVSIIPGITWTYVLPPILLSFSYLITKKYSYELGLSSMFCIIILIHYLIV”, the protein production result was “failed”.

“MFSPQASAAYDDLHEGYATYTGSGYSGGAFLLDPIPSDMEITAINPADLNYGGVKAALAGSYLEVEGPKGKTTVYVTDLYPEGARGALDLSPNAFRKIGNMKDGKINIKWRVVKAPITGNFTYRIKEGSSRWWAAIQVRNHKYPVMKMEYEKDGKWINMEKMDYNHFVSTNLGTGSLKVRMTDIRGKVVKDTIPKLPESGTSKAYTVPGHVQFPELEHHHHHH”: the protein production entry is “not failed”.

As to “MFSRVPAKSIARFRCVSESIHRRPDVTEQSLTKSMSRPRLLFALEVNKDLLFFSSPQPQNPYDNSSLVATPYKRFPKYLPTRICTTLGGLVFLQKWLRKKTRVICNPVSGDYITLPKVKATGVGESYFGFDPITKQFKVLCMTWSRYGTPNTHQVLTLETGKRLWRTIQDPILPHYRSFDRICINGVLYYGADFEESQSSKIVCFDFRFEKFSFINIADEGMFRGSYKWTLFNYKGKLGAHQYSRNGELVLWVLEDAENHKWSKSICILPPIVHNSRIVGVTGTGEIVFSPYACYMPSPFYIFFYNIQTKTCTRVHVKGFEEFKHNFTLLHTFLDFVEDTKFM”, the protein production entry is listed as “failed”.

Consider “MFTESSPAMDPDLPESETRPEFNPSSTDSTAMAESTDAGEPTAFELASSQVTSVADLPPERFNSLDELTHDLGSLHELSTRGSWQAILEKISQARALFLLTKPHEHLTYLTYQVMALAKLRRSDEASHELNSLHDFDGTHYRYESFPEIYPNRRGSMVPFSLRWLYALIPTKLGNRQEGLDRLYVLLDFVRDRIREKESQSLESSVELWKKRETFVMNCLLGFHLGHKEFGVSLDLMKELINRDPLDPVLISKLGSVQMQFGDVEGAKTTFDRVEKMLNEGKSNGLLNEIQFNNLVGRNKALVYVVAKDYVSAVREYDKCIERDNSDIIAVNNKALCLMYLRDLSDAIKVMESALERVPTAALNESLVVNLCSMYELAYVNHTDVKRTLNNWIARVAPDDFDSSCTRV”, for which the protein production entry is “failed”.

Consider “MFTETGLKSGRRTMRFARLLLLPLIVIGTLSGCAVNMADIHGFNVISLEQEKELGTKFAAEIEKQYPVYNDPEAQKYVDRLGRRLLTGAREVSFDYVFKVVKDDSVNAFAIPGGRLYVHTGLLKAAQSETEVAAVMAHEISHAVARHGTRQMTQQYGYSLVLSLVLGQNSNMLAQIAGELFGKAGMMSYSRDYENQADFLGVETMSKAGYNPQGMVSFFQKLDTMGQQNPSALTKFFSSHPLTSERIQRVQAEIAQLPPRTYPPVDNTDLQKIRARIKLEHHHHHH”, for which the protein production result is “failed”.
